In patent US12655197 (dated 2026):

Biological target: ProAgio
Assay: SPR

Kd: 0.12 nM
B1: αVβ3 (receptor)
chain 1: FNLDVDSPAEYSGPEGSYFGFAVDFFVPSASSRMFLLVGAPKANTTQPGIVEGGQVLKCDWSSTRRCQPIEFDATGNRDYAKDDPLEFKSHQWFGASVRSKQDKILACAPLYHWRTEMKQEREPVGTCFLQDGTKTVEYAPCRSQDIDADGQGFCQGGFSIDFTKADRVLLGGPGSFYWQGQLISDQVAEIVSKYDPNVYSIKYNNQLATRTAQAIFDDSYLGYSVAVGDFNGDGIDDFVSGVPRAARTLGMVYIYDGKNMSSLYNFTGEQMAAYFGFSVAATDINGDDYADVFIGAPLFMDRGSDGKLQEVGQVSVSLQRASGDFQTTKLNGFEVFARFGSAIAPLGDLDQDGFNDIAIAAPYGGEDKKGIVYIFNGRSTGLNAVPSQILEGQWAARSMPPSFGYSMKGATDIDKNGYPDLIVGAFGVDRAILYRARPVITVNAGLEVYPSILNQDNKTCSLPGTALKVSCFNVRFCLKADGKGVLPRKLNFQVELLLDKLKQKGAIRRALFLYSRSPSHSKNMTISRGGLMQCEELIAYLRDESEFRDKLTPITIFMEYRLDYRTAADTTGLQPILNQFTPANISRQAHILLDCGEDNVCKPKLEVSVDSDQKKIYIGDDNPLTLIVKAQNQGEGAYEAELIVSIPLQADFIGVVRNNEALARLSCAFKTENQTRQVVCDLGNPMKAGTQLLAGLRFSVHQQSEMDTSVKFDLQIQSSNLFDKVSPVVSHKVDLAVLAAVEIRGVSSPDHVFLPIPNWEHKENPETEEDVGPVVQHIYELRNNGPSSFSKAMLHLQWPYKYNNNTLLYILHYDIDGPMNCTSDMEINPLRIKISSLQTTEKNDTVAGQGERDHLITKRDLALSEGDIHTLGCGVAQCLKIVCQVGRLDRGKSAILYVKSLLWTETFMNKENQNHSYSLKSSASFNVIEFPYKNLPIEDITNSTLVTTNVTWGIQPAPMPV
chain 2: GPNICTTRGVSSCQQCLAVSPMCAWCSDEALPLGSPRCDLKENLLKDNCAPESIEFPVSEARVLEDRPLSDKGSGDSSQVTQVSPQRIALRLRPDDSKNFSIQVRQVEDYPVDIYYLMDLSYSMKDDLWSIQNLGTKLATQMRKLTSNLRIGFGAFVDKPVSPYMYISPPEALENPCYDMKTTCLPMFGYKHVLTLTDQVTRFNEEVKKQSVSRNRDAPEGGFDAIMQATVCDEKIGWRNDASHLLVFTTDAKTHIALDGRLAGIVQPNDGQCHVGSDNHYSASTTMDYPSLGLMTEKLSQKNINLIFAVTENVVNLYQNYSELIPGTTVGVLSMDSSNVLQLIVDAYGKIRSKVELEVRDLPEELSLSFNATCLNNEVIPGLKSCMGLKIGDTVSFSIEAKVRGCPQEKEKSFTIKPVGFKDSLIVQVTFDCDCACQAQAEPNSHRCNNGNGTFECGVCRCGPGWLGSQCECSEEDYRPSQQDECSPREGQPVCSQRGECLCGQCVCHSSDFGKITGKYCECDDFSCVRYKGEMCSGHGQCSCGDCLCDSDWTGYYCNCTTRTDTCMSSNGLLCSGRGKCECGSCVCIQPGSYGDTCEKCPTCPDACTFKKECVECKKFDRGALHDENTCNRYCRDEIESVKELKDTGKDAVNCTYKNEDDCVVRFQYYEDSSGKSILYVVEEPECPKGPD
